Measurements from US20220119828.

Biological target: T1, AcTPase4xOs (enhanced, rice codon-optimized Ac transposase with SV40 NLS) (Zea mays (engineered)) (UniProt P08770)
T1 sequence (P08770 whole entry, looked up): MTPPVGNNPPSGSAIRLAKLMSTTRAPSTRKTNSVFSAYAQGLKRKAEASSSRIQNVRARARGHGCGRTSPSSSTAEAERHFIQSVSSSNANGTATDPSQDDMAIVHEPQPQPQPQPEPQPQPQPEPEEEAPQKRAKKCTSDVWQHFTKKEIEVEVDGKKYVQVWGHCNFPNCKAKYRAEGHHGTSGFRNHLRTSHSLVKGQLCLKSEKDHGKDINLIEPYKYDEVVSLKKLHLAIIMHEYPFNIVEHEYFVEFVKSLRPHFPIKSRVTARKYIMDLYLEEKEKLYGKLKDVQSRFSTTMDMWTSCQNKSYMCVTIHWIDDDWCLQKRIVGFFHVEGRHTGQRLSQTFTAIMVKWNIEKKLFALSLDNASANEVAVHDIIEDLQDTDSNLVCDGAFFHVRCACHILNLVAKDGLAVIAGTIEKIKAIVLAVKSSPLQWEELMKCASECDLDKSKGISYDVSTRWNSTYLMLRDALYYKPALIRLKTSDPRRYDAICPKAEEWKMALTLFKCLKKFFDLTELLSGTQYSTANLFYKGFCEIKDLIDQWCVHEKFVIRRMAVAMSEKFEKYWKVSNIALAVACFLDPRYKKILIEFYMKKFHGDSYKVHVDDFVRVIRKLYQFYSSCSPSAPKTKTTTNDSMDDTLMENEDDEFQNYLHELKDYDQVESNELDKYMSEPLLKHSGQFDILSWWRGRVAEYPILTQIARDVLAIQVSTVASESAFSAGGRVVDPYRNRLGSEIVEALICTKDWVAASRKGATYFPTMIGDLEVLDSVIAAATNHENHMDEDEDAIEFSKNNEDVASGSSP
Test: cell_activity
Details: pZEN31E in rice callus, heat shock 42 C 90 min; 81.1% without heat shock; 0% for pZEN30NC lacking transposase

“CAGGGATGAAAGTAGGATGGGAAAATCCCGTACCGACCGTTATCGTATAACCGATTTTGTTAGTTTTATCCCGATCGATTTCGAACCCGAGGTAAAAAACGAAAACGGAACGGAAACGGGATATACAAAACGGTAAACGGAAACGGAAACGGTAGAGCTAGTTTCCCGACCGTTTCACCGGGATCCCGTTTTTAATCGGGATGATCCCGTTTCGTTACCGTATTTTCTAATTCGGGATGACTGCAATATGGCCAGCTCCAACTCCCATCCATAACCACTGAGGCCCAGCCCATGTAAGAATGCTCCAGATTTATATGGATTTTATCTATGTTTAATTAAGACTTGTGTTTACAATTTTTTATATTTGTTTTTAAGTTTTGAATATATGTTTTCATGTGTGATTTTACCGAACAAAAATACCGGTTCCCGTCCGATTTCGACTTTAACCCGACCGGATCGTATCGGTTTTCGATTACCGTATTTATCCCGTTCGTTTTCGTTACCGGTATATCCCGTTTTCGTTTCCGTCCCGCAAGTTAAATATGAAAATGAAAACGGTAGAGGTATTTTACCGACCGTTACCGACCGTTTTCATCCCTA (double strand)” was tested. Which activity (% callus lines with excision) did it give?
Its activity (% callus lines with excision) is 95.1.
